Laboratory results from PMC5329690, “A Synthetic Strategy for Conjugation of Paromomycin to Cell-Penetrating Tat(48-60) for Delivery and Visualization into Leishmania Parasites” (International Journal of Peptides, 2017).

Tested on: Leishmania donovani promastigotes
Assay: Intracellular uptake by confocal fluorescence microscopy
Assay type: cell-based
Settings: L. donovani promastigotes strain MHOM/SD/00/1S-2D, 2 × 10^7 cells/mL in HBSS-Glc; 9 μM conjugate, 4 h, 26°C; washed, DAPI 5 μg/mL, unfixed; confocal fluorescence λex 488 nm/λem 520 nm; representative of two other independent experiments
Experimental: Leishmania donovani promastigotes (strain MHOM/SD/00/1S-2D) were resuspended in Hanks' medium supplemented with 10 mM D-glucose (HBSS-Glc) at 2 × 10^7 cells/mL. Afterwards, 9 μM Bodi Fluor 488-labeled PMM-Tat conjugate 6 was added to the parasite suspension and incubated for 4 h in HBSS-Glc. After incubation, non-incorporated 6 was removed by washing the cells with HBSS-Glc. Finally, cells were labeled with DAPI (5 μg/mL, 20 min) before their observation, unfixed, in a Leica TCS–SP2 ABOS confocal laser scanning microscope.
Figure 3 Fluorescence of Leishmania donovani promastigotes incubated with Bodi Fluor 488-labeled PMM-Tat conjugate (9 μM, 4 h, 26°C) and stained with DAPI (5 μg/mL) immediately before observation, unfixed. Settings: conjugate (green, λex = 488 nm/λem = 520 nm); DAPI (blue, λex = 350 nm/λem = 460 nm). Bar = 20 μm. Experiment is representative of two other ones performed independently.
4. Parasite culture and confocal microscopy
Leishmania donovani promastigotes (strain MHOM/SD/00/1S-2D) were resuspended in Hanks’ medium supplemented with 10 mM D-glucose (HBSS-Glc) at 2 × 10^7 cells/mL.
Afterwards, 9 µM BodiFluor™ 488-labeled PMM-Tat conjugate was added to the parasite suspension and incubated for 4 h in HBSS-Glc. After incubation, non-incorporated conjugate was removed by washing the cells with HBSS-Glc. […]

Bodi Fluor-O2Oc-Tat(48-60)-O2Oc-Asp(paromomycin)-amide [compound 6]
intracellular uptake (internalization and cellular pattern): can enter the parasite, with a diffuse pattern in all the cytoplasm
